{"source": "patent US20160024219A1", "about": "(Sanofi, published 2016)", "binders": {"B1": {"name": "Ab26 (antibody, human IgG1, kappa, V domains shown)", "VH": "EVQLVESGGGLVQPGGSLRLSCAASGFPFSNYWMNWVRQAPGKGLEWVGQIRLKSNNYATHYAESVKGRFTISRDDSKNSLYLQMNSLKTEDTAVYYCTPIDYWGQGTTVTVSS", "VL": "DIVMTQTPLSLSVTPGQPASISCKSSQSLLYSNGKTYLNWVLQKPGQSPQRLIYLVSKLDSGVPDRFSGSGSGTDFTLKISRVEAEDVGVYYCVQGSHFHTFGQGTKLEIKR", "notes": "Humanized anti-human CD52 monoclonal antibody; made in HEK293 and in CHO cells; also called CTL; CTL1"}}, "key": {"[1]": {"target": "T1, CD52 peptide mimotope (CGQNDTSQTSSPSAD)", "T1 construct": "Immobilized at a low level on a CM5 chip via thiol chemistry using the N-terminal Cys; also called CD52 peptide chip", "T1 peptide": "CGQNDTSQTSSPSAD", "experiment": "BIACORE, CD52 peptide on CM5 chip; antibody from HEK293", "procedure": "(§1) Several concentrations of anti-CD52 antibody made in HBS-EP running buffer (1 to 20 nM) were injected over the surface to monitor the binding. Kinetic analysis was performed using Scrubber2 software."}, "[2]": {"target": "T1, CD52 peptide mimotope (CGQNDTSQTSSPSAD)", "experiment": "BIACORE, CD52 peptide on CM5 chip; antibody from CHO; CHO-produced Ab26", "procedure": "as §1"}, "[3]": {"target": "T1, CD52 peptide mimotope (CGQNDTSQTSSPSAD)", "experiment": "BIACORE (SPR), CD52 peptide, antibody purified from CHO cells; inset table", "procedure": "as §1"}, "[4]": {"target": "T1, CD52 peptide mimotope (CGQNDTSQTSSPSAD)", "experiment": "BIACORE (SPR), CD52 peptide, purified antibody; concentrations used for fit 7.5nM - 0.2nM"}, "[5]": {"target": "T2, CD52 peptide #741", "T2 construct": "also called CD52 peptide #741 chip", "experiment": "BIACORE (SPR), CD52 peptide #741 chip, preliminary constant; antibody at week 0 (before incubation)", "procedure": "(§2) The proteins (85 μg) were diluted in PBS, pH 7.2, to 0.4 mg/ml, and incubated at 45° C. for 4 weeks. Their binding affinity to CD52 peptide was measured on BIACORE™."}, "[6]": {"target": "T2, CD52 peptide #741", "experiment": "BIACORE (SPR), CD52 peptide #741 chip, preliminary constant; antibody after 2 weeks at 45C, pH 7.2 in PBS", "procedure": "as §2"}, "[7]": {"target": "T2, CD52 peptide #741", "experiment": "BIACORE (SPR), CD52 peptide #741 chip, preliminary constant; antibody after 4 weeks at 45C, pH 7.2 in PBS", "procedure": "as §2"}, "[8]": {"target": "T2, CD52 peptide #741", "experiment": "BIACORE (SPR), CD52 peptide #741 chip, apparent KD; antibody after 2 weeks at 37C, 3 component buffer pH 7.5", "source_text": "(§3) Aliquots were taken at Week 2 and Week 4 (T2 and T4) to assess their affinity to CD52 peptide by BIACORE™."}, "[9]": {"target": "T2, CD52 peptide #741", "experiment": "BIACORE (SPR), CD52 peptide #741 chip, apparent KD; antibody after 4 weeks at 37C, 3 component buffer pH 7.5", "source_text": "as §3"}, "[10]": {"target": "T2, CD52 peptide #741", "experiment": "BIACORE (SPR), CD52 peptide #741 chip, apparent KD; table 'after 37C incubation', T0, 3 component buffer pH 7.5", "source_text": "as §3"}, "[11]": {"target": "T2, CD52 peptide #741", "experiment": "BIACORE (SPR), CD52 peptide #741 chip, apparent KD; antibody after 2 weeks at 45C, 3 component buffer (graph title: 45C pH7.4)", "source_text": "as §3"}}, "note": "Several values for one entry are separate records, joined by “and”; a condition that tells them apart may be missing. Equal entries are not always repeated."}
{"binder": "B1", "values": [{"measurement": "Kd", "setting": "[1]", "result": "1.7 nM and 2.2 nM"}, {"measurement": "Kd", "setting": "[2]", "result": 2.6, "unit": "nM"}, {"measurement": "Kd", "setting": "[3]", "result": 2.61, "unit": "nM"}, {"measurement": "Kd", "setting": "[4]", "result": "2.4 nM and 2.8 nM"}, {"measurement": "Kd", "setting": "[5]", "result": 3, "unit": "nM"}, {"measurement": "Kd", "setting": "[6]", "result": 13.4, "unit": "nM"}, {"measurement": "Kd", "setting": "[7]", "result": 25.4, "unit": "nM"}, {"measurement": "Kd", "setting": "[8]", "result": "10 nM and 8.9 nM"}, {"measurement": "Kd", "setting": "[9]", "result": "17.4 nM and 18.3 nM"}, {"measurement": "Kd", "setting": "[10]", "result": "4.3 nM and 4.2 nM"}, {"measurement": "Kd", "setting": "[11]", "result": 28, "unit": "nM"}]}
